According to paper doi:10.1101/287425:

Molecular target: pyrene-labeled actin (rabbit skeletal muscle F-actin) (rabbit) (UniProt P68135)
Experiment: other fluorescence titration

single-headed S1 fragment of bovine ventricular cardiac myosin (from UniProt Q9BE39 1-1935; P85100 1-199) (complex)
relative pyrene-actin fluorescence after addition of 2.0 mM MgATP: 0.95
stoichiometry N (myosin heads per actin): 1
